Laboratory results taken from patent US20250195629A1, “SITE-SPECIFIC BRAIN THERAPEUTICS” (William Marsh Rice University, priority 2023, published 2025).

B1: RLuc8.6-IKVAV: fusion of RLuc8.6 and ECM-mimicking peptide IKVAV (SEQ ID NO: 23) via GS linker; CDS SEQ ID NO: 18 (protein)
chain: MRGSHHHHHHGMASMTGGQQMGRDLYDDDDKDPMASKVYDPEQRKRMITGPQWWARCKQMNVLDSFINYYDSEKHAENAVIFLHGNATSSYLWRHVVPHIEPVARCIIPDLIGMGKSGKSGNGSYRLLDHYKYLTAWFELLNLPKKIIFVGHDWGSALAFHYAYEHQDRIKAIVHMESVVDVIESWMGWPDIEEELALIKSEEGEKMVLENNFFVETLLPSKIMRKLEPEEFAAYLEPFKEKGEVRRPTLSWPREIPLVKGGKPDVVQIVRNYNAYLRASDDLPKLFIESDPGFFSNAIVEGAKKFPNTEFVKVKGLHFLQEDAPDEMGKYIKSFVERVLKNEQGGSGSSGGSGGSGGSGIKVAV
modifications: misc_feature 1..1095 Synthetic: RLuc8.6-IKVAV
B2: RLuc8.6: recombinant His-tagged luciferase, model protein enzyme converting coelenterazine into coelenteramide; CDS SEQ ID NO: 17 (protein)
chain: MRGSHHHHHHGMASMTGGQQMGRDLYDDDDKDPMASKVYDPEQRKRMITGPQWWARCKQMNVLDSFINYYDSEKHAENAVIFLHGNATSSYLWRHVVPHIEPVARCIIPDLIGMGKSGKSGNGSYRLLDHYKYLTAWFELLNLPKKIIFVGHDWGSALAFHYAYEHQDRIKAIVHMESVVDVIESWMGWPDIEEELALIKSEEGEKMVLENNFFVETLLPSKIMRKLEPEEFAAYLEPFKEKGEVRRPTLSWPREIPLVKGGKPDVVQIVRNYNAYLRASDDLPKLFIESDPGFFSNAIVEGAKKFPNTEFVKVKGLHFLQEDAPDEMGKYIKSFVERVLKNEQ
modifications: His tag; misc_feature 1..1032 Synthetic: RLuc8.6

Key:
[1] = previously available approach; cited from earlier work
[2] = Ex vivo BLI of brain sections, retention of unmodified or engineered RLuc8.6; type: in vivo, mouse
Description: (§1) FUS-BBBO—C57BL/6J male or female mice (12-18 weeks of age) were anaesthetized with 2.5% isoflurane in 1.5% O2 and shaved on top of skull using a trimmer. A catheter, made by a 30-gauge needle connected to PE10 tubing, was inserted into the tail vein, affixed in place using tissue glue and then flushed with 10 units (U) mL^−1 of heparin in sterile saline (0.9% NaCl). Subsequently, the mouse was mounted on the RK50 (FUS Instruments) stereotactic platform using the ear bars and bite bar/nose cone. A midline scalp incision was vertically made to expose the skull after disinfecting the site using three alternating scrubs of chlorhexidine scrub and chlorhexidine solution. The locations of Lambda and Bregma were registered in the RK50 software using the guild pointer. Next, sterile ultrasound gel was applied on the surface of skull before placing the ultrasound transducer in a tank, both of which were filled with degassed water. The mice were then sequentially injected via tail vein with purified recombinant protein in PBS buffer and approximately 1.5×10^6 DEFINITY microbubbles (Lantheus) per gram of body weight diluted in sterile saline. Immediately after injections of protein and microbubbles, the mice were insonated using RK-50 FUS system with axial and lateral diameter of 5 mm and 1.2 mm, respectively.
Ex vivo analysis of engineered RLuc8.6—FUS was performed to target three sites in the left hemisphere of C57BL6J mice (n=5 mice per group) immediately after systemic administration of RLuc8.6 (20 mg/mL, 100 mg/kg) or engineered variant (20 mg/mL, 104 mg/kg) and microbubbles by tail vein injection. The dose of engineered RLuc8.6 was increased accordingly based on their molecular weight for injecting the same number of molecules as unmodified RLuc8.6. The control group (n=5 mice) was injected intravenously with the same dose of unmodified RLuc8.6 without FUS. The mice were euthanized using CO2 without perfusion at two time points (2-day and 7-day) after FUS-BBBO procedure. Immediately afterwards, the brains were extracted, washed with ˜20 mL PBS buffer in a 50 mL conical tube for 30 s, and then cut into 2 mm sections without olfactory bulb and brainstem using a coronal Slicer (Invitrogen). The sections were individually transferred into a 6-well glass bottom plate (Cellvis) filled with 2 mL PBS buffer. BLI was performed using an IVIS spectrum imager (Perkin Elmer) immediately after adding 1 mL dissolved CTZ (cat #303-INJ, Nanolight Technology) with a final concentration of 10 μM. The parameters used here were similar as in vivo BLI with is of exposure time and field of view C. The average radiance (p/s/cm^2/sr) of each brain section was quantified with the Living Image software (Caliper Life Sciences) and summed to compare the activity retention of RLuc8.6 among different groups.

[3] = Mouse body weight analysis; type: in vivo; set-up: key to Significance of body weight difference between day 0 and 3 days after systemic administration: ns (not significant); conditions: for Weight loss: day 0 vs 2 days after injection, RLuc8.6 100 mg/kg, AADC-IKVAV 250 mg/kg
Experimental: To assess the potential impact of the RAID approach on the body weight of the mice involved in behavior analysis (n=11 mice for the FUS alone+L-DOPA group and n=14 mice for the FUS+AADC-IKVAV (SEQ ID NO: 23)+L-DOPA group), their body weight was recorded on a daily basis before and after FUS-BBBO administration. […] The body weight of the additional group of mice was also recorded in a similar manner; however, unintentionally four mice were omitted from weighing on the day following the AADC-IKVAV (SEQ ID NO: 23) injection. Similarly, the mouse body weight was recorded before and after the intravenous injection of unmodified or engineered RLuc8.6, which is related to the study presented in FIG. 5.

[4] = Immunohistochemical analysis of RLuc8.6 after FUS-BBBO delivery; type: in vivo, mouse; conditions: 150 mg/kg i.v., FUS-BBBO 4 sites left striatum, 1 h post-delivery
Description: as §1, with “The mice were then sequentially injected via tail vein with purified recombinant protein in PBS buffer and approximately 1.5×10^6 DEFINITY microbubbles (Lantheus) per gram of body weight diluted in sterile saline. Immediately after injections of protein and microbubbles, the mice were insonated using RK-50 FUS system with axial and lateral diameter of 5 mm and 1.2 mm, respectively.” left out
Histological imaging—All histological images were obtained using a fluorescence microscope (BZ-X810, Keyence). To evaluate RLuc8.6 retention, as depicted in FIG. 2b and FIG. 3, we acquired fluorescence images of striatal sections using a ×4 objective in DAPI (nuclei) and far-red (RLuc8.6) channels. […]

[5] = In vivo bioluminescent imaging (BLI) of RLuc8.6 in the head region; set-up: species or system mouse
Description: as §1
In vivo BLI—Two groups of mice (n=7 mice for FUS+RLuc8.6 group and n=3 mice for FUS alone group) underwent FUS-BBBO targeting one site at left striatum immediately after i.v. injection of RLuc8.6 (2 mg/mL, 8 mg/kg) or equivalent volume of PBS buffer. The third group of mice (n=6) was injected intravenously with the same dose of RLuc8.6 without FUS-BBBO procedure. BLI was conducted 1 h, 24 h, 48 h and 96 h after FUS insonation with an IVIS spectrum imager (Perkin Elmer). […] The bioluminescence signal was quantified by calculating the average radiance (p/s/cm^2/sr) in the head region of view C imaging using the Living Image software (Caliper Life Sciences).

[6] = FUS-BBBO + protein i.v., RLuc8.6-IKVAV 104 mg/kg

Row | Molecule | time the drug lasts in the brain after FUS-BBBO delivery [1] | mean activity improvement over unmodified RLuc8.6 ([2]; 2 days after FUS-BBBO, sum of average radiance in five sections) | bioluminescence vs RLuc8.6 alone control at 7 days ([2]; 7 days after FUS-BBBO) | level of bioluminescence vs control group without applying FUS ([2]; FUS-BBBO delivery, stated with FIG. 5e (7 days)) | duration of retention in the brain ([2]; after a single session of FUS-BBBO delivery) | Significance of body weight difference between day 0 and 3 days after systemic administration ([3]; FUS-BBBO + protein i.v.) | weight loss on day 3 compared to day 0 ([3]; FUS-BBBO + protein i.v.) | Weight loss [3, 6] | average fluorescence intensity of RLuc8.6 immunostaining, FUS target region vs untargeted contralateral site [4] | IVIS enzyme levels vs controls ([5]; 8 mg/kg i.v., from 24 hours after FUS-BBBO onwards) | bioluminescence signal averaged over the entire brain, FUS+RLuc8.6 vs RLuc8.6 alone without FUS ([5]; 8 mg/kg i.v., one FUS site left striatum, 1 h after FUS-BBBO, CTZ 3.5 mg/kg i.p.) | upper threshold of enzyme concentration increase within the targeted site vs untargeted controls ([5]; calculated from volume of single BBB opening site (1% of brain volume)) | enzyme function within the brain parenchyma ([2]; 7-day timepoint) | Significance of body weight difference between day 0 and 3 days after systemic administration ([3]; protein i.v. alone without FUS) | Weight loss ([3]; protein i.v. alone without FUS)
1 | NCCCC(=O)O [GABA] | approximately 100 minutes | – | – | – | – | – | – | – | – | – | – | – | – | – | –
2 | B1 | – | 2.3(±0.3) fold | significantly different | 113(±33) fold | 1 week | ns | no significant weight loss | 3.2±0.8% | – | – | – | – | – | – | –
3 | B2 | – | – | – | – | – | ns | no significant weight loss | 3.4±0.7% | significantly higher immunostaining signal | statistically indistinguishable from controls | 2.2(±0.3) fold | approximately 220 fold | remain functional | ns | 2.1 ± 0.6%
